Laboratory results published in patent US20200315149.

Key:
cathepsin K-cleaved FXII = cathepsin K-cleaved FXII (UniProt P00748)
[1] = molecular target: full-length coagulation factor XII purified from human plasma (UniProt P00748)
[2] = molecular target: recombinant human pro-HGF (UniProt P14210)
recombinant human pro-HGF, sequence (P14210 32-728): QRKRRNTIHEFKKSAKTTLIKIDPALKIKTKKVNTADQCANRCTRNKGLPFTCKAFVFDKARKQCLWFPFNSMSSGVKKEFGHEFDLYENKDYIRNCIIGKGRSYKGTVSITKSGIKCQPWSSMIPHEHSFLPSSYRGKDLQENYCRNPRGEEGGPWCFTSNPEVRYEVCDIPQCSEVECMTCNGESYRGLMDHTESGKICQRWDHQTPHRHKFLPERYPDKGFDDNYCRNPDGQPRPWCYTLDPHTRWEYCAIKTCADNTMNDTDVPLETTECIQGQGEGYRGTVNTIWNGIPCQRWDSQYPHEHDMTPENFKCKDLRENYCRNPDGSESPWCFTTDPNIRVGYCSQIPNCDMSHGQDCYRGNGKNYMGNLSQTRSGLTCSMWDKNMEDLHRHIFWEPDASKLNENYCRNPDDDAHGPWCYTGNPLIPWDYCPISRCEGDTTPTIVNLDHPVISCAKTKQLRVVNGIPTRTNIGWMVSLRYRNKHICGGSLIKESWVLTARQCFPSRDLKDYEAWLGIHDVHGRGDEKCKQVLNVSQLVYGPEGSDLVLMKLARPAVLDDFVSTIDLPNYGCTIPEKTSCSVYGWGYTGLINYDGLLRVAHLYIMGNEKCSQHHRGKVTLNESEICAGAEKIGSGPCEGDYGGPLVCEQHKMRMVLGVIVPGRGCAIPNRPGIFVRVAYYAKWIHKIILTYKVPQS

plasma kallikrein, sequence (chain, as listed by the source): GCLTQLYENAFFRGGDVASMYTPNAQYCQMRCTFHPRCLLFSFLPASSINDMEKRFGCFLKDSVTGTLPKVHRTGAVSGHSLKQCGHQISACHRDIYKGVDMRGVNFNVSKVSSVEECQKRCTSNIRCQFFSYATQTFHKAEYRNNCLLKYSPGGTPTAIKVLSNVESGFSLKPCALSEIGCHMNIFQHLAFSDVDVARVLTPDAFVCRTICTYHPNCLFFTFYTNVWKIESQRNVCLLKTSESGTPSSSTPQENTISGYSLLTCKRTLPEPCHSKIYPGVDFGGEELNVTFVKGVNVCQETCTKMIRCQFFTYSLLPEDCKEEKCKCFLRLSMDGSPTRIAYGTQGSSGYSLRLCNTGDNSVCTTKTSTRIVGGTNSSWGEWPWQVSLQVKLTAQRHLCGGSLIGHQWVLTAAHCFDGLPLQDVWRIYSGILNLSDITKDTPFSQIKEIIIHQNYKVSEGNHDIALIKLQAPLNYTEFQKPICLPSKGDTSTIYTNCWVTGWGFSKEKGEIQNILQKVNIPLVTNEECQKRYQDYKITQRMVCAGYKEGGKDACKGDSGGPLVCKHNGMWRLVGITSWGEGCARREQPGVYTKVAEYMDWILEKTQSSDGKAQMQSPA
cathepsin K-cleaved FXII, sequence (P00748 20-615): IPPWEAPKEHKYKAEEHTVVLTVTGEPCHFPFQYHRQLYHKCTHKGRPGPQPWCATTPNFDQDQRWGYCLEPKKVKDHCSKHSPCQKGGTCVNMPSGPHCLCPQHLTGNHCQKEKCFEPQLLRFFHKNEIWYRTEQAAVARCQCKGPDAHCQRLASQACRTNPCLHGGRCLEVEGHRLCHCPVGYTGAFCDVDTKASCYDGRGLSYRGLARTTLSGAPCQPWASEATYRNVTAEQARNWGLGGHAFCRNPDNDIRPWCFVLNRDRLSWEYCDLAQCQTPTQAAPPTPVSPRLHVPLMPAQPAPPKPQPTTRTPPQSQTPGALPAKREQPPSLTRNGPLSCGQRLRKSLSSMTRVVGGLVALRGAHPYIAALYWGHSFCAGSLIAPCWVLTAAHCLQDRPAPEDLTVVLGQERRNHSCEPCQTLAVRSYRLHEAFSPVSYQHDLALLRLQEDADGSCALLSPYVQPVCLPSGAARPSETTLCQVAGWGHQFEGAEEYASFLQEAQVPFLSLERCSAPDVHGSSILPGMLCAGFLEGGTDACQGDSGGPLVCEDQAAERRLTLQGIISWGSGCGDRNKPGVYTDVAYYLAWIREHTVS
full-length coagulation factor XII purified from human plasma, sequence (P00748 20-615): as above

Row | Substance | FXIIa activity on chromogenic substrate S-2302 after incubation with plasma kallikrein (15 nM, 15 min) (cathepsin K-cleaved FXII) | FXIIa activity on chromogenic substrate S-2302 after incubation with plasma kallikrein (15 nM, 15 min) [1] | cleavage of pro-HGF, western blot [2]
1 | plasma kallikrein | cathepsin K-cleaved FXII had dramatically increased activity compared to full-length FXII when incubated with plasma kallikrein | Cathepsin-cleaved FXII incubated with kallikrein (15 nM) had much higher activity than full length FXII incubated with kallikrein | –
2 | thrombin | – | – | other serine proteases found in the brain such as thrombin and tissue plasminogen activator did not convert pro-HGF to HGF
